B1: Pistol ribozyme (parent)
chain: GGGUCGUUGUUCCAUAAUCGCGUGGAUAUGGCACGCAAGUUUCUACCGGGCACCGUAAAUGUCCGACUGGAGCCGUUCGGGCGGCUAUAAACAGACCUCAGGCCCGAAGCGUGGCGGCACCUGCCGCCGGUGGUAAAAAAGAUCGGAAGAGCACACGUCU

In this data set the parent is B1. The data set is described as follows: aptazyme ON/OFF ratio, guanine; higher = stronger switching; co-transcriptional cleavage with and without guanine.
For GGGUCGGUCGUGGAUAAUCGCGUGGAUAUGGCACGCAAGUUUCUACCGGGCACCGUAAAUGUCCGACUGGAGCCGUUCGGGCGGCUAUAAACAGACCUCAGGCCCGAAGCGUGGCGGCACCUGCCGCCGGUGGUAAAAAAGAUCGGAAGAGCACACGUCU, the “aptazyme ON/OFF ratio” value was determined as 1.18. In the case of GGGUCGAACUUUAAUAAUCGCGUGGAUAUGGCACGCAAGUUUCUACCGGGCACCGUAAAUGUCCGACUGGAGCCGUUCGGGCGGCUAUAAACAGACCUCAGGCCCGAAGCGUGGCGGCACCUGCCGCCGGUGGUAAAAAAGAUCGGAAGAGCACACGUCU, the “aptazyme ON/OFF ratio” value was 1.15. Consider GGGUCGGCUCAACAUAAUCGCGUGGAUAUGGCACGCAAGUUUCUACCGGGCACCGUAAAUGUCCGACUGGAGCCGUUCGGGCGGCUAUAAACAGACCUCAGGCCCGAAGCGUGGCGGCACCUGCCGCCGGUGGUAAAAAAGAUCGGAAGAGCACACGUCU, for which the “aptazyme ON/OFF ratio” value was found to be 2.7. Turning to GGGUCGCGCGGCGAUAAUCGCGUGGAUAUGGCACGCAAGUUUCUACCGGGCACCGUAAAUGUCCGACUGGAGCCGUUCGGGCGGCUAUAAACAGACCUCAGGCCCGAAGCGUGGCGGCACCUGCCGCCGGUGGUAAAAAAGAUCGGAAGAGCACACGUCU, the “aptazyme ON/OFF ratio” value was determined as 1.1. The same measure for GGGUCGGACAGAGAUAAUCGCGUGGAUAUGGCACGCAAGUUUCUACCGGGCACCGUAAAUGUCCGACUGGAGCCGUUCGGGCGGCUAUAAACAGACCUCAGGCCCGAAGCGUGGCGGCACCUGCCGCCGGUGGUAAAAAAGAUCGGAAGAGCACACGUCU: 1.05; for GGGUCGCGGACACAUAAUCGCGUGGAUAUGGCACGCAAGUUUCUACCGGGCACCGUAAAUGUCCGACUGGAGCCGUUCGGGCGGCUAUAAACAGACCUCAGGCCCGAAGCGUGGCGGCACCUGCCGCCGGUGGUAAAAAAGAUCGGAAGAGCACACGUCU: 1.13. Regarding GGGUCGCGAAUUAAUAAUCGCGUGGAUAUGGCACGCAAGUUUCUACCGGGCACCGUAAAUGUCCGACUGGAGCCGUUCGGGCGGCUAUAAACAGACCUCAGGCCCGAAGCGUGGCGGCACCUGCCGCCGGUGGUAAAAAAGAUCGGAAGAGCACACGUCU, the “aptazyme ON/OFF ratio” value was 1.18.

Regarding GGGUCGACGAUUAAUAAUCGCGUGGAUAUGGCACGCAAGUUUCUACCGGGCACCGUAAAUGUCCGACUGGAGCCGUUCGGGCGGCUAUAAACAGACCUCAGGCCCGAAGCGUGGCGGCACCUGCCGCCGGUGGUAAAAAAGAUCGGAAGAGCACACGUCU, the “aptazyme ON/OFF ratio” value is 1.11. Consider GGGUCGGCGGAGCAUAAUCGCGUGGAUAUGGCACGCAAGUUUCUACCGGGCACCGUAAAUGUCCGACUGGAGCCGUUCGGGCGGCUAUAAACAGACCUCAGGCCCGAAGCGUGGCGGCACCUGCCGCCGGUGGUAAAAAAGAUCGGAAGAGCACACGUCU, for which the “aptazyme ON/OFF ratio” value is 1.13. The same measure for GGGUCGACCACUAAUAAUCGCGUGGAUAUGGCACGCAAGUUUCUACCGGGCACCGUAAAUGUCCGACUGGAGCCGUUCGGGCGGCUAUAAACAGACCUCAGGCCCGAAGCGUGGCGGCACCUGCCGCCGGUGGUAAAAAAGAUCGGAAGAGCACACGUCU: 1.05; for GGGUCGGUUUUAUAUAAUCGCGUGGAUAUGGCACGCAAGUUUCUACCGGGCACCGUAAAUGUCCGACUGGAGCCGUUCGGGCGGCUAUAAACAGACCUCAGGCCCGAAGCGUGGCGGCACCUGCCGCCGGUGGUAAAAAAGAUCGGAAGAGCACACGUCU: 1.14. For GGGUCGAGACUAAAUAAUCGCGUGGAUAUGGCACGCAAGUUUCUACCGGGCACCGUAAAUGUCCGACUGGAGCCGUUCGGGCGGCUAUAAACAGACCUCAGGCCCGAAGCGUGGCGGCACCUGCCGCCGGUGGUAAAAAAGAUCGGAAGAGCACACGUCU, the “aptazyme ON/OFF ratio” value came out at 1.05.

Turning to GGGUCGAGCCAGAAUAAUCGCGUGGAUAUGGCACGCAAGUUUCUACCGGGCACCGUAAAUGUCCGACUGGAGCCGUUCGGGCGGCUAUAAACAGACCUCAGGCCCGAAGCGUGGCGGCACCUGCCGCCGGUGGUAAAAAAGAUCGGAAGAGCACACGUCU, the “aptazyme ON/OFF ratio” value turned out to be 1.23. For the variant GGGUCGUGGUCAAAUAAUCGCGUGGAUAUGGCACGCAAGUUUCUACCGGGCACCGUAAAUGUCCGACUGGAGCCGUUCGGGCGGCUAUAAACAGACCUCAGGCCCGAAGCGUGGCGGCACCUGCCGCCGGUGGUAAAAAAGAUCGGAAGAGCACACGUCU, the “aptazyme ON/OFF ratio” value was determined as 1.23. The same measure for GGGUCGCCAGAUAAUAAUCGCGUGGAUAUGGCACGCAAGUUUCUACCGGGCACCGUAAAUGUCCGACUGGAGCCGUUCGGGCGGCUAUAAACAGACCUCAGGCCCGAAGCGUGGCGGCACCUGCCGCCGGUGGUAAAAAAGAUCGGAAGAGCACACGUCU: 1.19. On to GGGUCGACUUCUAAUAAUCGCGUGGAUAUGGCACGCAAGUUUCUACCGGGCACCGUAAAUGUCCGACUGGAGCCGUUCGGGCGGCUAUAAACAGACCUCAGGCCCGAAGCGUGGCGGCACCUGCCGCCGGUGGUAAAAAAGAUCGGAAGAGCACACGUCU, for which the “aptazyme ON/OFF ratio” value was 1.12. For the variant GGGUCGAGUUACGAUAAUCGCGUGGAUAUGGCACGCAAGUUUCUACCGGGCACCGUAAAUGUCCGACUGGAGCCGUUCGGGCGGCUAUAAACAGACCUCAGGCCCGAAGCGUGGCGGCACCUGCCGCCGGUGGUAAAAAAGAUCGGAAGAGCACACGUCU, the “aptazyme ON/OFF ratio” value worked out at 1.25. Regarding GGGUCGAUAGUUUAUAAUCGCGUGGAUAUGGCACGCAAGUUUCUACCGGGCACCGUAAAUGUCCGACUGGAGCCGUUCGGGCGGCUAUAAACAGACCUCAGGCCCGAAGCGUGGCGGCACCUGCCGCCGGUGGUAAAAAAGAUCGGAAGAGCACACGUCU, the “aptazyme ON/OFF ratio” value is 1.32. Regarding GGGUCGAAAUGAAAUAAUCGCGUGGAUAUGGCACGCAAGUUUCUACCGGGCACCGUAAAUGUCCGACUGGAGCCGUUCGGGCGGCUAUAAACAGACCUCAGGCCCGAAGCGUGGCGGCACCUGCCGCCGGUGGUAAAAAAGAUCGGAAGAGCACACGUCU, the “aptazyme ON/OFF ratio” value came to 1.08. Take GGGUCGUCUUUUCAUAAUCGCGUGGAUAUGGCACGCAAGUUUCUACCGGGCACCGUAAAUGUCCGACUGGAGCCGUUCGGGCGGCUAUAAACAGACCUCAGGCCCGAAGCGUGGCGGCACCUGCCGCCGGUGGUAAAAAAGAUCGGAAGAGCACACGUCU: the “aptazyme ON/OFF ratio” value was 1.42. GGGUCGAUGACCGAUAAUCGCGUGGAUAUGGCACGCAAGUUUCUACCGGGCACCGUAAAUGUCCGACUGGAGCCGUUCGGGCGGCUAUAAACAGACCUCAGGCCCGAAGCGUGGCGGCACCUGCCGCCGGUGGUAAAAAAGAUCGGAAGAGCACACGUCU: the “aptazyme ON/OFF ratio” value worked out at 1.03. Take GGGUCGCUUCGAUAUAAUCGCGUGGAUAUGGCACGCAAGUUUCUACCGGGCACCGUAAAUGUCCGACUGGAGCCGUUCGGGCGGCUAUAAACAGACCUCAGGCCCGAAGCGUGGCGGCACCUGCCGCCGGUGGUAAAAAAGAUCGGAAGAGCACACGUCU: the “aptazyme ON/OFF ratio” value turned out to be 1.11. With GGGUCGAACACACAUAAUCGCGUGGAUAUGGCACGCAAGUUUCUACCGGGCACCGUAAAUGUCCGACUGGAGCCGUUCGGGCGGCUAUAAACAGACCUCAGGCCCGAAGCGUGGCGGCACCUGCCGCCGGUGGUAAAAAAGAUCGGAAGAGCACACGUCU, the “aptazyme ON/OFF ratio” value was 1.13. For GGGUCGCCCAUAAAUAAUCGCGUGGAUAUGGCACGCAAGUUUCUACCGGGCACCGUAAAUGUCCGACUGGAGCCGUUCGGGCGGCUAUAAACAGACCUCAGGCCCGAAGCGUGGCGGCACCUGCCGCCGGUGGUAAAAAAGAUCGGAAGAGCACACGUCU, the “aptazyme ON/OFF ratio” value was 1.09. In the case of GGGUCGACGCGGUAUAAUCGCGUGGAUAUGGCACGCAAGUUUCUACCGGGCACCGUAAAUGUCCGACUGGAGCCGUUCGGGCGGCUAUAAACAGACCUCAGGCCCGAAGCGUGGCGGCACCUGCCGCCGGUGGUAAAAAAGAUCGGAAGAGCACACGUCU, the “aptazyme ON/OFF ratio” value was 1.14. Regarding GGGUCGUGUAGCUAUAAUCGCGUGGAUAUGGCACGCAAGUUUCUACCGGGCACCGUAAAUGUCCGACUGGAGCCGUUCGGGCGGCUAUAAACAGACCUCAGGCCCGAAGCGUGGCGGCACCUGCCGCCGGUGGUAAAAAAGAUCGGAAGAGCACACGUCU, the “aptazyme ON/OFF ratio” value was determined as 1.04. For GGGUCGCCGAACCAUAAUCGCGUGGAUAUGGCACGCAAGUUUCUACCGGGCACCGUAAAUGUCCGACUGGAGCCGUUCGGGCGGCUAUAAACAGACCUCAGGCCCGAAGCGUGGCGGCACCUGCCGCCGGUGGUAAAAAAGAUCGGAAGAGCACACGUCU, the “aptazyme ON/OFF ratio” value was determined as 1.63. The same measure for GGGUCGUAGCUAUAUAAUCGCGUGGAUAUGGCACGCAAGUUUCUACCGGGCACCGUAAAUGUCCGACUGGAGCCGUUCGGGCGGCUAUAAACAGACCUCAGGCCCGAAGCGUGGCGGCACCUGCCGCCGGUGGUAAAAAAGAUCGGAAGAGCACACGUCU: 1.26; for GGGUCGUUCCUGCAUAAUCGCGUGGAUAUGGCACGCAAGUUUCUACCGGGCACCGUAAAUGUCCGACUGGAGCCGUUCGGGCGGCUAUAAACAGACCUCAGGCCCGAAGCGUGGCGGCACCUGCCGCCGGUGGUAAAAAAGAUCGGAAGAGCACACGUCU: 1.06; for GGGUCGACAAUUCAUAAUCGCGUGGAUAUGGCACGCAAGUUUCUACCGGGCACCGUAAAUGUCCGACUGGAGCCGUUCGGGCGGCUAUAAACAGACCUCAGGCCCGAAGCGUGGCGGCACCUGCCGCCGGUGGUAAAAAAGAUCGGAAGAGCACACGUCU: 1.17. With GGGUCGCGGCGAUAUAAUCGCGUGGAUAUGGCACGCAAGUUUCUACCGGGCACCGUAAAUGUCCGACUGGAGCCGUUCGGGCGGCUAUAAACAGACCUCAGGCCCGAAGCGUGGCGGCACCUGCCGCCGGUGGUAAAAAAGAUCGGAAGAGCACACGUCU, the “aptazyme ON/OFF ratio” value was found to be 1.32. The same measure for GGGUCGUCCCUGGAUAAUCGCGUGGAUAUGGCACGCAAGUUUCUACCGGGCACCGUAAAUGUCCGACUGGAGCCGUUCGGGCGGCUAUAAACAGACCUCAGGCCCGAAGCGUGGCGGCACCUGCCGCCGGUGGUAAAAAAGAUCGGAAGAGCACACGUCU: 1.12; for GGGUCGUCUUUGUAUAAUCGCGUGGAUAUGGCACGCAAGUUUCUACCGGGCACCGUAAAUGUCCGACUGGAGCCGUUCGGGCGGCUAUAAACAGACCUCAGGCCCGAAGCGUGGCGGCACCUGCCGCCGGUGGUAAAAAAGAUCGGAAGAGCACACGUCU: 1.25. The same measure for GGGUCGCCGUAAGAUAAUCGCGUGGAUAUGGCACGCAAGUUUCUACCGGGCACCGUAAAUGUCCGACUGGAGCCGUUCGGGCGGCUAUAAACAGACCUCAGGCCCGAAGCGUGGCGGCACCUGCCGCCGGUGGUAAAAAAGAUCGGAAGAGCACACGUCU: 1.15; for GGGUCGACGUGGCAUAAUCGCGUGGAUAUGGCACGCAAGUUUCUACCGGGCACCGUAAAUGUCCGACUGGAGCCGUUCGGGCGGCUAUAAACAGACCUCAGGCCCGAAGCGUGGCGGCACCUGCCGCCGGUGGUAAAAAAGAUCGGAAGAGCACACGUCU: 1.09. Take GGGUCGUACUGUUAUAAUCGCGUGGAUAUGGCACGCAAGUUUCUACCGGGCACCGUAAAUGUCCGACUGGAGCCGUUCGGGCGGCUAUAAACAGACCUCAGGCCCGAAGCGUGGCGGCACCUGCCGCCGGUGGUAAAAAAGAUCGGAAGAGCACACGUCU: the “aptazyme ON/OFF ratio” value came to 1.08.
